Changes are numbered by the printed parent chain.

For test [1], the target named is T1, phycoerythrin (PE)-conjugated BCMA (Recombinant Human TNFRSF17 protein, Fc/His-tagged, R-PE labeled); Creative … (human, UniProt Q02223 1-54, R-PE labeled).
T1 construct: Bought reagent; also called BCMA-PE; not shown: Fc/His tag of the bought reagent
T1 sequence: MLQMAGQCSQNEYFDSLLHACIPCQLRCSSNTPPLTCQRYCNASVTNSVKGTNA
Put plainly: flow cytometry; CAR T cells stained with BCMA-PE, 3 days after electroporation. As to the method:
(§1) CAR T cells obtained from the above-described process were tested for viability, CAR protein expression, BCMA binding, and cytotoxicity, i.e., the ability to kill BCMA+ myeloma (tumor) cells. Viability, CAR expression, and BCMA binding were determined by flow cytometry on a GUAVA® […]® 12HT Flow cytometer (EMD Millipore). To test viability, a sample of the CAR T cells was mixed with propidium iodide and run on the flow cytometer with electronic gating on fluorescence in the near infrared channel. To test CAR protein expression and BCMA binding, a sample of the CAR T cells was incubated with 0.4 ug/mL of phycoerythrin (PE)-conjugated BCMA (Recombinant Human TNFRSF17 protein, Fc/His-tagged, R-PE labeled; Creative Biomart, Shirley, N.Y.). CAR expression was assessed on the flow cytometer with electronic gating on fluorescence in the yellow channel to detect presence or absence of emission from BCMA-PE on CAR-positive and CAR-negative cells. BCMA binding was determined by measuring the intensity of fluorescence in the yellow channel to determine the relative quantity of BCMA-PE bound to labelled CAR-positive cells. For the viability, expression, and BCMA binding assays, CD8+ T cells electroporated without mRNA (CAR-negative T Cells) were tested as a parallel control.
Numerous CAR-encoding mRNA constructs were prepared using the mRNA construct of SEQ ID: 29 as a starting point (which encodes a CAR of sequence SEQ ID: 19 and comprises the scFv of sequence SEQ ID: 48). These constructs encoded the same or substantially the same amino acid residues in the scFv complementary-determining regions (CDRs) but varied with respect to the amino acid residues in the scFv framework regions. In making these variations, the experimenter's intent was to humanize the scFv framework regions without reducing BCMA-binding and tumor-killing properties of CAR T cells that express the CAR. For each of the mRNA constructs, CAR T cells were prepared by transfection into human CD8+ cells, substantially as described in Example 1. The CAR T cells made from each mRNA construct were then tested 3 days after electroporation for BCMA binding and/or tumor killing, as substantially described in Example 1.
Background: A flow cytometer gives signals particle by particle.

In test [2] the target is T1, phycoerythrin (PE)-conjugated BCMA …. The description is as above. As to the method: as §1
For each of the mRNA constructs, CAR T cells were prepared by transfection into human CD8+ cells, as described in Example 1. The CAR T cells made from each mRNA construct were then tested 3 days after electroporation for BCMA binding and tumor killing, as described in Example 1.
The source holds these as a separate data set.

The target in another test is T2, human BCMA on cells (human, UniProt Q02223 1-184).
T2 sequence: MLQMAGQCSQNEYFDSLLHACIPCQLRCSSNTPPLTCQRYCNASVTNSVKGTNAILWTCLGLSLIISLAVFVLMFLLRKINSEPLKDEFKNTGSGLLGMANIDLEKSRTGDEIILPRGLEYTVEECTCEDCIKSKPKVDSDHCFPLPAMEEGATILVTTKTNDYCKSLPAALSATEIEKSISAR
Put plainly: cell-based or functional assay.

B1: CAR comprising scFv-Yi2 (SEQ ID NO: 55) (other)
chain: DIQLTQSPSSLSASVGDRVTITCRASQSVTILGSHLIHWYQQKPGKAPKLLIQLASNVQTGVPSRFSGSGSGTDFTLTISSLQPEDVATYYCLQSRTIPRTFGQGTKLEIKGSTSGSGKPGSGEGSTKGQVQLVQSGGGLVQPGRSVKLSCAASGYTFTDYSINWVRQAPGKGLEWVGWINTETREPAYAYDFRGRFTISRDTSKNTAYLQMNSLRAEDTAVYYCARDYSYAMDYWGQGTLVTVSS
notes: CAR on mRNA-electroporated human CD8+ T cells; Only the scFv is identified; not shown: rest of the CAR (hinge, transmembrane, cytoplasmic domains) not specified for this construct
As for B1, the “BCMA Binding (relative to SEQ ID: 48)” value in test [1] is 12 relative to SEQ ID: 48 = 100.

B2: CAR comprising scFv-CAS2 (C2) (SEQ ID NO: 61) (other)
chain: DIVLTQSPASLAVSPGQRATISCRASESVTILGSHLIHWYQQKPGQPPKLLIQLASNVQTGVPARFSGSGSRTDFTLTISSLEPEDVAVYYCLQSRTIPRTFGQGTKVEIKGSTSGSGKPGSGEGSTKGQITLKESGPTLVKPTQTLTLSCKASGYTFTDYSINWVRRAPGKGLEWMGWINTETREPAYAYDFRGRFVFSLDTSVSMAYLQISSLKAEDTAVYYCALDYSYAMDYWGQGTLVTVSS
notes: as for B1
As to B2, the “BCMA Binding” value in test [1] is 34 relative (SEQ ID: 48 = 100).

B3: CAR comprising scFv-J4 (SEQ ID NO: 52) (other)
chain: DIVMTQSPDSLSVSLGERATINCRASESVTILGSHLIHWYQQKPGQPPKLLIQLASNVQTGVPDRFSGSGSGTDFTLTISSLQAEDVAVYYCLQSRTIPRTFGGGTKVEIKGSTSGSGKPGSGEGSTKGQIQLVQSGAEVKKPGESVKISCKASGYTFTDYSINWVRQAPGQGLKWMGWINTETREPAYAYDFRGRFAFSLDTSASTAYLQISSLKAEDTAVYFCALDYSYAMDYWGQGTLVTVSS
notes: as for B1
For the molecule B3, in test [1], the “BCMA Binding (relative to SEQ ID: 48)” value was 82 relative to SEQ ID: 48 = 100.

B4: CAR comprising scFv-J2 (SEQ ID NO: 50) (other)
chain: DIVLTQSPASLAVSLGERATISCRASESVSILGSHLLHWYQQKPGQPPKLLIYLASNLQTGVPARFSGSGSGTDFTLTISSLEAEDVAVYYCLQSRTIPRTFGQGTKLEIKGSTSGSGKPGSGEGSTKGQIQLVQSGAEVKKPGASVKISCKASGYTFTDYSINWVRQAPGQGLEWMGWINTETREPAYAYDFRGRVTMTRDTSASTAYLQISSLKAEDTAVYFCALDYSYAMDYWGQGSLVTVSS
notes: as for B1
For B4, the “BCMA Binding (relative to SEQ ID: 48)” value in test [1] was 51 relative to SEQ ID: 48 = 100.

B5: CAR comprising scFv-J5 (SEQ ID NO: 53) (other)
chain: DIVLTQSPASLAVSLGERATISCRASESVSILGSHYLAWYQQKPGQPPKLLIYLASNLQTGVPARFSGSGSGTDFTLTISSLEAEDVAVYYCQQSRTIPRTFGQGTKLEIKGSTSGSGKPGSGEGSTKGQIQLVQSGAEVKKPGESVKISCKASGYTFTDYSINWVRQAPGQGLKWMGWINTETREPAYAYDFRGRFAFSLDTSASTAYLQISSLKAEDTAVYFCALDYSYAMDYWGQGTLVTVSS
notes: as for B1
Regarding B5, the “BCMA Binding (relative to SEQ ID: 48)” value in test [1] is 103 relative to SEQ ID: 48 = 100.

B6: CAR comprising scFv-J3 (SEQ ID NO: 51) (other)
chain: B4 chain with E17K, S30T, L37I, L58V, I131V
notes: as for B1
As to B6, the “BCMA Binding (relative to SEQ ID: 48)” value in test [1] was 54 relative to SEQ ID: 48 = 100.

B7: CAR comprising scFv-J1 (SEQ ID NO: 49) (other)
chain: B3 chain with E145A, K175E, F197V, A198T, F199M, S200T, L201R, T240S
notes: as for B1
Turning to B7, in test [1], the “BCMA Binding (relative to SEQ ID: 48)” value was 76 relative to SEQ ID: 48 = 100.

B8: CAR comprising scFv-1′ (SEQ ID NO: 62) (other)
chain: DIVLTQSPSSLSASVGDRATISCRASESVTILGSHLIHWYQQKPGQAPKLLIQLASNVQTGVPARFSGSGSGTDFTLTISSVEPEDVAVYYCLQSRTIPRTFGQGTKVEIKGSTSGSGKPGSGEGSTKGQIQLVQSGPELKKPGGSVKISCAASGYTFTSYDINWVRQAPGKGLEWVGWINTETREPAYAYDFRGRFTFSADTSKSTAYLQMNSLRAEDTAVYYCALDYSYAMDYWGQGTLVTVSS
notes: as for B1
With B8, the “BCMA Binding (arbitrary units)” value in test [2] was found to be 189 arbitrary units. Moreover, the “Killing (% killed), Effector:target ratio of 1:2” value with human BCMA on cells was 3%.

B9: CAR comprising scFv-11′ (SEQ ID NO: 67) (other)
chain: B8 chain with E183N, R185G, E186N, A188T, Y191Q, D192G, R194T, S230T, A232G
notes: as for B1
Take B9: the “BCMA Binding (arbitrary units)” value in test [2] worked out at 310 arbitrary units. Further, the “Killing (% killed), Effector:target ratio of 1:2” value with human BCMA on cells is 0%.

B10: CAR comprising scFv-Y33 (SEQ ID NO: 58) (other)
chain: B8 chain with Q135E, P138A, L140V, S160D, D162S, R167K, A201L
notes: as for B1
B10: the “BCMA Binding (relative to SEQ ID: 54)” value in test [1] is 40 relative to SEQ ID: 54 = 100.

B11: CAR comprising scFv-4′ (SEQ ID NO: 63) (other)
chain: B8 chain with S160D, D162S, S230T, A232G
notes: as for B1
On to B11, for which the “BCMA Binding (arbitrary units)” value in test [2] worked out at 439 arbitrary units. For the same molecule, the “Killing (% killed), Effector:target ratio of 1:2” value with human BCMA on cells came to 78%.

B12: CAR comprising scFv-Y31 (SEQ ID NO: 56) (other)
chain: B8 chain with S160D, D162S, R167K
notes: as for B1
Take B12: the “BCMA Binding (relative to SEQ ID: 54)” value in test [1] is 58 relative to SEQ ID: 54 = 100.

B13: CAR comprising scFv-10′ (SEQ ID NO: 66) (other)
chain: B8 chain with D162S, Y191Q, D192G, R194T, S230L, A232S, M233L, Y235F
notes: as for B1
For the molecule B13, the “BCMA Binding (arbitrary units)” value in test [2] was 269 arbitrary units. The “Killing (% killed), Effector:target ratio of 1:2” value in the test with human BCMA on cells was determined as 81%.

B14: CAR comprising scFv-8′ (SEQ ID NO: 64) (other)
chain: DIVLTQSPSSLSASVGDRATISCRASESVSFLGINLIHWYQQKPGQAPKLLIYSASNLQSGVPARFSGSGSGTDFTLTISSVEPEDVAVYYCLQSRTLPRTFGQGTKVEIKGSTSGSGKPGSGEGSTKGQIQLVQSGPELKKPGGSVKISCAASGYTFTDYSINWVRQAPGKGLEWVGWINTETREPAYAYDFRGRFTFSADTSKSTAYLQMNSLRAEDTAVYYCALDYSYAMDYWGQGTLVTVSS
notes: as for B1
Consider B14, for which, in test [2], the “BCMA Binding (arbitrary units)” value amounted to 496 arbitrary units. Further, the “Killing (% killed), Effector:target ratio of 1:2” value with human BCMA on cells came out at 26%.

B15: CAR comprising scFv-9′ (SEQ ID NO: 65) (other)
chain: B14 chain with R96K, T97N, L98F
notes: as for B1
With B15, the “BCMA Binding (arbitrary units)” value in test [2] was 173 arbitrary units. In addition, in the test with human BCMA on cells, the “Killing (% killed), Effector:target ratio of 1:2” value is 86%.

B16: CAR comprising scFv-Y34 (SEQ ID NO: 59) (other)
chain: B8 chain with Q135E, P138A, L140V, I149V, A152K, S160D, D162S, T198A, F199I, D202E
notes: as for B1
As for B16, in test [1], the “BCMA Binding (relative to SEQ ID: 54)” value was 79 relative to SEQ ID: 54 = 100.

B17: CAR comprising scFv-Yi1 (SEQ ID NO: 54) (other)
chain: B8 chain with E85D, Q104G, V108L, S160D, D162S, R167K, A201L
notes: CAR on mRNA-electroporated human CD8+ T cells; not shown: rest of the CAR (hinge, transmembrane, cytoplasmic domains) not specified for this construct
As for B17, in test [1], the “BCMA Binding (relative to SEQ ID: 48)” value was 141 relative to SEQ ID: 48 = 100 and the “BCMA Binding (relative to SEQ ID: 54)” value is 100 relative to SEQ ID: 54 = 100.

Source of the values: patent US20220089678A1 (CARTESIAN THERAPEUTICS, published 2022).
